The record followed here is the supplement of paper PMC9170038.

This data set concerns MS2 coat protein. Nature of the data set: apparent KD of MS2 coat protein; designed switch direction (-1 OFF switch, 1 ON switch): -1; higher = weaker reporter binding. Put shortly: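 Transcription of designed RNA switches on Illumina chips was done by stalled E. coli RNA polymerase. SNAP-549-labelled MS2 coat protein was then titrated in doubling steps from 0.7 or 1.5 nM to 3 µM, with steps of 0.8–1.5 h at the lowest and 10–20 min at the highest concentration. The per-design median over clusters of curve-fitted normalised fluorescence is reported as apparent KD.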

[1] abbreviates: Eterna round: R95, input ligand: FMN 200 uM.
The mark [2] stands for this setting: Eterna round: R95, input ligand: microRNA oligo, concentration not stated.
Setting [3] is: Eterna round: R95, input ligand: none.
The mark [4] stands for this setting: input ligand: microRNA oligo, concentration not stated.

With “GAAAAGGUAGGAUAUACGAAAACAAAGGGUAGAAACAAAACACAUGAGGAUCACCCAUGUAGAAGGACCAAAAG [salish99_ex2_r3_097] (puzzle: Exclusion 2)”, the “apparent KD of MS2 coat protein” value by setting is: under setting [1], 164 nM; under setting [2], 25.6 nM; under setting [3], 25.4 nM.
For the sequence “GAAAAGGUAGGAUAUACGAAAAGAAAGGGUAGAGAAGAAACACAUGAGGAUCACCCAUGUAGAAGGACCAAAAG [salish99_ex2_r3_098] (puzzle: Exclusion 2)”, the “apparent KD of MS2 coat protein” value is 96.4 nM under setting [1], 26.4 nM under setting [2] and 28.4 nM under setting [3].
As for “GAAAAGGUAGGAUAUACGAAAAUAAAGGGUAGAAAUAAAACACAUGAGGAUCACCCAUGUAGAAGGACCAAAAG [salish99_ex2_r3_096] (puzzle: Exclusion 2)”, the “apparent KD of MS2 coat protein” value under setting [1] stood at 70.6 nM, the “apparent KD of MS2 coat protein” value under setting [2] was found to be 23.3 nM and the “apparent KD of MS2 coat protein” value under setting [3] worked out at 23.2 nM.
“GAAAAGGUAGGAUAUACGAAGAAAAAGGGUAGAAAAAAAACACAUGAGGAUCACCCAUGUAGAAGGACCAAAAG [salish99_ex2_r3_028] (puzzle: Exclusion 2)”: the “apparent KD of MS2 coat protein” value reads like this: under setting [1], 54.4 nM; under setting [2], 23.8 nM; under setting [3], 20.2 nM.
For “GAAAAGGUAGGAUAUACGAGAAAAAAGGGUAGAAAAAAAACACAUGAGGAUCACCCAUGUAGAAGGACCAAAAG [salish99_ex2_r3_029] (puzzle: Exclusion 2)”, the “apparent KD of MS2 coat protein” value reads like this: under setting [1], 35.5 nM; under setting [2], 23.1 nM; under setting [3], 21.3 nM.
As for “GAAAAGGUAGGAUAUACGAUAAUAAAGGGUAGAUAAUAAACACAUGAGGAUCACCCAUGUAGAAGGACCAAAAG [salish99_ex2_r3_103] (puzzle: Exclusion 2)”, the “apparent KD of MS2 coat protein” value under setting [1] turned out to be 127 nM, the “apparent KD of MS2 coat protein” value under setting [2] is 35 nM and the “apparent KD of MS2 coat protein” value under setting [3] is 35.2 nM.
Take “GAAAAGUGAGGAUAUGGUAAAAAAAAAAGAAAAAAAAAACUCCAGAAGGCACAUGAGGAUCACCCAUGUAAAAG [salish99_ex4_r3_003] (puzzle: Exclusion 4)”: the “apparent KD of MS2 coat protein” value was 41.9 nM under setting [1], 19.5 nM under setting [2] and 58.6 nM under setting [3].
Taken in the same sequence, the figures for “GAAAAGUGAGGAUAUGGUAAAAGAAAAAGAAAAAAAAAACUCCAGAAGGCACAUGAGGAUCACCCAUGUAAAAG [salish99_ex4_r3_004] (puzzle: Exclusion 4)” were 33.5 nM, 24.5 nM and 24 nM.
Take “GAAAAGUGAGGAUAUGGUAAAAGAAAAAGAAAAAGAAAACUCCAGAAGGCACAUGAGGAUCACCCAUGUGAAAG [salish99_ex4_r3_006] (puzzle: Exclusion 4)”: the “apparent KD of MS2 coat protein” value under setting [1] came to 15.7 nM, the “apparent KD of MS2 coat protein” value under setting [2] worked out at 16.2 nM and the “apparent KD of MS2 coat protein” value under setting [3] was determined as 15.8 nM.
Consider “GAAACGGGUGCACCUCAGUCACAUGAGGAUCACCCAUGUUCUGAGGAUAUGCAUCCAAACGGAACGCAGAAGGCGGAACGUAAC [Beisoner] (Eterna round: R96, puzzle: Exclusion NG 3)”, for which the “apparent KD of MS2 coat protein” value runs as follows: (input ligand: FMN 200 uM) 14.6 nM; under setting [4], 14 nM; (input ligand: none) 16.4 nM.
Turning to “GAAAUACAUGAGGAUCACCCAUGUGAGGAUAUGCUAUGGAAAUAAAAAAUAAAACAUAGCAGAAGGUACAAAAG [Mat - Exclusion 1 - Eli mod - D43] (Eterna round: R96, puzzle: Exclusion 1)”, under setting [4], the “apparent KD of MS2 coat protein” value was found to be 50.9 nM.
For “GAACAAGCGUGAGGCUCGUCUUAAAGAGCCUCAUGAAAAACAUGAGGAUCACCCAUGUAAAAUGAUCGAAAGAUCAA [Mat - Sensor v2 - var 2 - Mod - D131] (Eterna round: R96, puzzle: Sensor v2, turn-off variant 2)”, the “apparent KD of MS2 coat protein” value is, setting by setting: (input ligand: FMN 200 uM) 14.9 nM; under setting [4], 12.7 nM; (input ligand: none) 16.9 nM.
